test: soluble on expression in E. coli; label from the status in PepcDB or PDB records

Sequence	soluble on expression in E. coli
MDVVEVAGSWWAQEREDIIMKYEKGHRAGLPEDKGPKPFRSYNNNVDHLGIVHETELPPLTAREAKQIRREISRKSKWVDMLGDWEKYKSSRKLIDRAYKGMPMNIRGPMWSVLLNTEEMKMKNPGRYQIMKEKGKRSSEHIQRIDRDVSGTLRKHIFFRDRYGTKQRELLHILLAYEEYNPEVGYCRDLSHIAALFLLYLPEEDAFWALVQLLASERHSLQGFHSPNGGTVQGLQDQQEHVVATSQPKTMGHQSASRRRPGVARGHVFATGSLIPGPGMRTLCSSILGPL	not soluble
MDWSHYRFRSLWALPAPPARVYAALERVEDYPRWWPQVREVTRLDEDCGVIRIRSLLPYDMTFTARDVRHDTAAGILEITMTGDIDGWARWTVTAGGPGTLARYDQEVDVRKPLLRRFAVPGRPVFRANHALMMRAGQRGLLAHLDGLEHHHHHH	not soluble
MDYCCVGRNNNDSVPSEGTLLRVKTLMKMANHPRPGDIIQESLDELNVSLREFARAMEIAPSTASRLLTGKAALTPEMAIKLSVVIGSSPQMWLNLQNAWSLAEAEKTVDVSRLRRLVTQ	soluble
MDYDVIANQPVVIDNGSGVIKAGFAGEQQPKVRFANFVGRPKYHRVMAGGLDGDIFIGPKAESNRGLFSIEYPMEHGIVNNWSDMEKIWEYIFGQDQLKIFPEEHPVLLTDAPLNPLKNRERSAEIFFETFNVPALYIQMQAVLSLYATGRTTGVVLDSGDGVTHAVPIVKGFAMKHAIQRMDLAGRDVTEYLRVLLRREGYEFHRSNEFEIVREMKENACYLALDPTKVENNSVKSSYALPDTTKIEISNSLFRAPEVLFKPDLIGTEWPGMAHVVNQSIMKCDVDLRQTLYSNIVLSGGTTLFKGFGDRLLGEMRKIAPADGKIRISASQERNSLTWIGGSIVASLDTFRKMWLGKKEYEDMGASAMHKRFF	not soluble
MDYRVLLYYKYTTIDDPELFATEHLAFCKDLELKGRILVSTEGINGTVSGTVEATDKYMEALKNDARFQGITFKVDEAEGHAFKKMHVRPRQEIVALDLEDDVNPRELTGNYLSPKEFREALLSDDTVVIDARNDYEYDLGHFRGAVRPDITRFRDLPDWIKENKEQFMDKKIVTYCTGGIRCEKFSGYLLKEGFEDVSQLEGGIATYGKDPETKGEFWDGKMYVFDERISVEVNHVDKTVVGKEWFDGTPCERYINCSNPECNKQILVSEENEARYLGACSHECAKHENNRYVKKHNISDEEKAKRLENFKELVKLEHHHHHH	not soluble
MEAAANRQLIVSFTPYEWKYVRQLFRSRRIEDVKECVIILATWISRTGENTPVAISCSHVLLQAIYAELLSTGMCESERYMAIDDLRSKHGYAIVRFVNYVNEMGQTGATLKNMVHAVKSFGIPKKIVDIRHAITHQNCPDIAELRYATNFCLDWLWKNFWLSDARVAMNSAAATNSSKNPTSSSEFGGQRGREQQYVSSLRAFNTWRVKNRQLTTELEWSEVAELLALKHHILLDSTGFLTCFMRDGHLIQTPGQWKNWKLPVTCSNDNWQIPEEIQAFWEPLFHVMFSLKLGAEIVVAFLWRLREPMIKDMTRHQITAYVRMIVQQFADADVFSDEEWYKVLDHLLPVAKNFSTEFIELVMARCTTLAHKRKKQIRQILNISTKSHVESPSTSSSDTVHTVSDLQKLLKKSSKSVVKSEPVTSNADGNRTGIELCDVAAWAEVPFGMAPGQRIETFTVVLDHHGSDKSRKRRAFDAAITLDED	not soluble
MEAASIAVPGAGASLRAQALDALMTPAWADKLAAVAAIDAGAPVGAQQDLAEPAGLPGRPPAPQLVPPSQVRQRSVQSPEGRAALLHALAHIEFNAINLALDAVWRYGGLPDAYYLDWLKVAREEAYHFDLLNRHLSGLGHAYGDFPAHNGLWEMAEKTRADLLARLALVPRTLEARGLDASPLIRDKLAAAGDADGAAILEIILRDEIGHVAIGNHWYKALCAQRGLDPVAQYAQLASRYGAPRLRGPFNLEARRAAGFDEDELRALLQAKLAAALEHHHHHH	soluble
MEAEPLETEQDEWRKERMRVLDEWCEIELKGADALKMDVTREPGSPTVAVAPETSLQDLYPLLIATSSSNAPPSATPTDDVTDPEVQVVSRESIDNRSTFNRIIDVCLCRPVKSQMGPKAYTDKTLILKLAQIPYDHENGTHWLLLSDYFNNVSRSLMTSSEYSHVTNPSRVGAHWVTVGFQSATPHTDFRGCGVLGLLQMHTFTQRVPANLLRAIVLLATTEPNDFPLAVVSINITSILLTQLKKGALDNFGNEIEGLYPFFSALHASAMCRFCSIYKSQKCTLANTQTIFSEITRQLEKSPLSLIMLLNPTNDELINTLL	not soluble
MEDFNRRAEELDQVEKNVSLGLKKIQDEMDSIQLEVEPDDVEITSTKRGFWEHDITNLSPFPVVCRVRATSPSMFVVNKNVFLLKPMDFFKLMISRKPGQIRSHHLKIDVTQFVDTFNPINLLDYFIASNPFKTFVVRYHGAPRYWSDALEMNSWLTGEQLNEQWEKEMKKTSQEKKSSLETSEVSSVNEFVDAEEDNFPVQRAAMNITNVLTVASQVPDESNKNEPDSDIDSVVSGTIDSELANLKI	not soluble
MEDHKPRPCQPRPWLKEQKCPTGFWCHEGQSEHSFYCCPSSRKFANRCHLPPAVGYGKQRMRRFYFDWKTDACHELQYSGIGGNENIFMDYEQCERVCRGAGEPPILLPSNMKVLPKETTKDFKKMEKPEMEKKMVYPKEVAAPVSLQPPSLRTTKPADVHESFYTVSPQTSSVPHPTTLSTTHSKQKPTTTEAEIPEVFDPNPCSLSPDKGFPGSVTVNMWYYDPTSTTCSPFMYLGKGGNSNRFETSEECLETCGIGKPTRKSCELPPAIGNGPFNIPRYYFDRVTKKCERFFYSGRDGNDNRFYKKNKCERLCLRKKPKKKENIYEFTTTPSTPSVIYESTPLRIIQNLVPNYVTPTPTQSRITVEPWIERFTEKSSIYEYSTTPHPTLIYEPHGETLPTLNPPTTTTPSIVDHVFSSLMNTQQQKLVEFVHVPTDQKTTGETPRKFSSHETIPFGQVEQQPIPMNPFGSAKPTVNKFGMKVEPYQTTDYMLPPGYPSSSIYLPQPAYPEVKPNSSVILSSTQSQNNTSPQTIPASASVTNSATSTVVDTSSQFQIPYVSSPASATSNIFVGPIPPPSNSGSSSQAPDSSQSATNSSNSGSGESKIPNVGPIAPPSQLSQVGVFVTGSTSTSPVVSINFIKTENSVQQPTHYIVPSQSSPPPDPYVISNPIPTLSPTAGTPSFNIYPYPSLPPPTTTISPLPTLLPPNISYVTSPPDNNDSPCSRSIYGDATIMCENRQEICPMGTFCQIGQGQSICCPIMDEPPCEQAIEEGVGNVLLRRWYFDPATRLCQPFYYKGFKGNQNNFQSFDSCSRACGATNVCSGGSPQMSVHTHLLSCNFESDCPYSHDCIQSTPHNLCCPKTSHLVPESIPAPPFEPVQMPIPAPPAQVSQPQEQSSNMVIDFVPATHASNNLCGQPIDVGFGVLSEHRWAYSAGQCTSFLYSGHGGNMNNFLTRNDCMKTCQSPMPPPSSQCSQPAASGQGDQYLSRYFFSPEYRQCLHFIYSGEGGNQNNFDSLTDCLETCVANGIKFSSLANSPMSAVPPPPPTLMPSPPVTSSPFTFVPRNMCPQGDPLITVDGTPIQCDPSKAAKCPGDHVCTPRGNEAYCCPSPMNFCLQSRPPISVCSGPDFEPVREIRFTYDPLADRCVRFSFQNCRGAAFSPTGSLNNFVSNSQCNRLCCNQGYNLVYKRRLLMAMNDDPIVEDD	not soluble
MEDHSSSIAVHKLDGDLLLRTAEIGDADMIAAYFQSNRDYLKPFEPKREEAFFSVNGWLQKLIKLNELHRMGLGYYCLLIHVDT	not soluble
MEDLEHGVASNGLRYGFYRVESESAAICIAARGGSSFEPPGKYGIAHLTEHMIFRGNEYLQDGELDRAVELSGGEANAYTTRELILLCAEFVSDSLARVAEKLFLAVSARRLVEGEFERERAVVEAEVKGLISSPESRIYRLAHASAWGDSHLGRPIEGYPETVANISKADVEEYKASVFSPERMSLAIVGRISRLEALRVVKLFSQLEPGGKVREPETPEPRTTFLREERGIEAAYAALTLPLPPRSGLANVLARLRGVVFNLEAGATSILFKEVREERGLAYGFNVDVHITSWGSSMSLIVLEGNRDRVGELFDAMTRSLERALRGGYPESEWREGRRRLYRFYTRREAISNMERADALSAVILFHEKPFTLEDLVNQTLSSEWSLEEFLRLPRGLALIV	not soluble
MEDMYDSFAALSASESEYRIIYEEKNGSELIVLGPHGGRIEPGVSELVRAFSDRCSIYLFEGLKQRNNRSLHLTSIRFDEPLALEKVNDHHYALAFHGYYDPKIPHTLVGGADRKKAKLICERLNEAGFSAELTNEKDRLAGVHPNNIVNRTKREMGLQLEVSTAQRNALFRNFGCRDKSYIQNDLFDRYVEAVKLGFYTLEHHHHHH	soluble
MEDPLGRLEWIKFLSAFYDKEDKAENYFNQQVSKVMATENKVSSLKKPKVAFGMVDNGKVYIPAKNSYAAKMVDMAGGDYIFKDLNNKSGYITLEDFYSKSKDADVLIYSSSKEYTPSLKSMLSAAPILKTIKPVKNKKVWCFGKDYYQAIDKTDEIIEDLASIFHPESFKGYKIKHYSHLEHHHHHH	soluble
MEDRFTTRRRANLESIAQRLLEISQKTEEDEANEVGEDDQHPKNVLNILNTITKEGLEKIVNDIIANGTIIDEMFVVLQRFSEKPALSNPIQRPFYSNLDDNVPSFLRNLQKWRLRDELTKSIEQEEKLKAELKHANDQINMIVEHNKLELDALNKINLEAKAQEKIQEEIIQRCMKRVEDLESILETKEQKLNDFEEREYETTCQLTMKHSLELAEKDQKILELEKYIRNNENQDVVALTRELERLRSQATKDEPSTDDSTIKISMAQHRLELEAQAKMIKTLEAELSKRQEINAEQIERLIEERNSEIKNLIREQSKEIHEKNVKIAKFEIKDYANIFRQISKNIFTNKEAPGPSGRPKKRRMVDDPEDLFHNYEDLDDAKFLELAKIIETTKKDVTTLINTEGPSEDVSGNFMEAKKIHGALAQLKEKDQTVSDLKQKTNQNNKRVDQEDPIEEYEYDYNDESDGESVKSETSSWDQIDDIF	not soluble
MEEELASYKLQLQQVEAALLGDPTNVELLKLKEDLGEIISLQEDLAETDKAESSERAVVAPQVIHKWTVGERVIAPHPDGKKVFARIDSLTPAGVAITFTSTGTKTIVDPADLQLPPENQRKNYAFDNTKSAAGPSTQHGKKEWQAEKERRRQKALKKQQKQKELDSIKDGEKKSWQKFNTKANAKGLKGLKKVSATGSSQDGSASSSGGGGEKRGTIVSSRSSQFIFKATRGAMDSLF	not soluble
MEELGYVTDAEINAKLAELKGKVPSVVINELREKLMAKKDSLTPRQLDEIVKRVLEAYGSQAAKYEQISKRVDELGKKLSDLSSQLARLVEALEEKKFAVHEKKAEAVAEKAAEVSEKIEKIEEMLEEKPRKSEIEKKLEELHRKIEELSERVAKEKVEETKARIEELEEKIAKGEEIKPEEIKEIEEEVEELGEFEEAPVEEIVVEEEKPPEPVEEVPVVEEKKEEVIEEVPVEEVVEEEKVPSHVVEEEKVEEEGGREMAEKMKIPEDIASLLFEEEPRKARLEEIPDDVVSIMIALKWLGFLIDRVGIQNLEKVLEFYYDIGWISEKVFNQLLRFAKGTRPHHRDPEWKPAEKLTVQDHLISLLFIERLRGLRITRDVLDKLEREIKMLEKTLDEFYGV	not soluble
MEELRFNSVFDIIGPVMIGPSSSHTAGAARIGKVVRSIFGQQPDSVDIYLYESFAKTYRGHGTDIALVGGLLGMEPDDEQLSNSLEIAYEQGMEVCFIPKSEKADHPNSVKIVVSSGDRKLSVTGISIGGGNIQISELNGFKLSLSMGTPTFIVVHQDVPGMIAKVTNILSASDINISTMTVTRESKGEKAIMIIEVDQAEVGDIVMQLAEIPHIYSVNYFD	not soluble

From the DeepSol protein solubility set
